Reference: patent US7399869B2, “Fibroblast activation protein inhibitor compounds and methods” (Genentech, Inc., priority 2005, dated 2008)

Experiments:
[1] = substrate: NCC(=O)N1CCCC1C(=O)Nc1ccc2c(C(F)(F)F)c(CC(N)=O)c(=O)oc2c1; experiment: Hydrolysis of C-terminal coumarin dipeptide substrates by DPP-4 (kinetic constants); assay type: biochemical; conditions: other: DPP-4, substrates with unblocked N-termini, 23° C., pH 7.4
Description: (§1) The relative cleavage rates by FAP and several dipeptidases of N-blocked (8) and unblocked (7) Gly-Pro dipeptide substrates were measured.
(§2) The cleavage (hydrolysis) rates of various C-terminal coumarin dipeptide substrates 7-16 by FAP and DPP-4 were measured (Tables 4 and 5). The amino-terminus of the substrates was unblocked and the amino acids were varied in Table 4. The amino-terminus of the substrates was blocked and the amino acids were varied in Table 5. To extend the results obtained with the dipeptide substrate library, kinetic parameters were determined for cleavage of the unblocked dipeptide substrates by FAP (Table 4). The catalytic efficiency (kcat/Km) for substrate cleavage was greatest with Ile-Pro-AFC, followed by Ala-Pro-, Gly-Pro- and Phe-Pro-AFC, consistent with the dipeptide substrate library results (FIG. 5). […] Kinetic constants for cleavage of Ala-Pro-AFC and Gly-Pro-AFC by DPP-4 were determined (Table 4). The catalytic efficiency for Ala-Pro-AFC hydrolysis was greater than that for Gly-Pro-AFC, and consistent with the dipeptide library.
(§3) Protease Assays—Protease activity was monitored continuously using a SpectraMax M2 microplate reader (Molecular Devices Corp., Sunnyvale Calif.) in the kinetic mode. Assays were conducted at 23° C. in 50 mM Tris (pH 7.4), 100 mM NaCl, 1 mM EDTA. The excitation/emission wavelengths for the different fluorogenic substrates were 360/460 nm (AMC), 400/505 nm (AFC), 340/425 nm (MNA), 340/510 nm (EDANS), and 337/425 nm (Abs). Standard curves of the appropriate fluorescent product versus concentration were used to convert relative fluorescence units to nmol of product produced. Substrates in the X-Pro-AMC library were used in rate assays at 5 μM final concentration. […] The kinetic parameters were calculated from Michaelis-Menten plots (V0 versus [S]) with nonlinear regression analysis using GraphPad software. kcat values were calculated under the assumption that each protease was 100% active.
(§4) When saturating amounts of substrate could not be achieved, catalytic efficiencies (kcat/Km) were determined under pseudo-first order conditions ([S]<<the estimated Km) and fit to the following equation: Ln[St/S0]=−kobst, where St is the concentration of substrate remaining at time t, S0 is the initial substrate concentration and kobs is the apparent first order substrate cleavage constant equal to (kcat/Km) times ET, the total enzyme concentration (Copeland, R. (2000) Enzymes, A Practical Introduction to Structure, Mechanism, and Data Analysis, 2nd Ed., John Wiley and Sons, Inc, New York). The linear relationship of Ln[St/S0] versus time allows calculation of kcat/Km by dividing the slope of the plot by ET.

[2] = substrate: CC(=O)NCC(=O)N1CCCC1C(=O)Nc1ccc2c(C(F)(F)F)c(CC(N)=O)c(=O)oc2c1; experiment: as above; assay type: biochemical; conditions: other: DPP-4, substrates with blocked N-termini, 23° C., pH 7.4, NC = no cleavage up to 1 mM substrate
Description: as §1, §2, §3, §4

B1: DPP-4 (Homo sapiens) (protein)
chain: SRKTYTLTDYLKNTYRLKLYSLRWISDHEYLYKQENNILVFNAEYGNSSVFLENSTFDEFGHSINDYSISPDGQFILLEYNYVKQWRHSYTASYDIYDLNKRQLITEERIPNNTQWVTWSPVGHKLAYVWNNDIYVKIEPNLPSYRITWTGKEDIIYNGITDWVYEEEVFSAYSALWWSPNGTFLAYAQFNDTEVPLIEYSFYSDESLQYPKTVRVPYPKAGAVNPTVKFFVVNTDSLSSVTNATSIQITAPASMLIGDHYLCDVTWATQERISLQWLRRIQNYSVMDICDYDESSGRWNCLVARQHIEMSTTGWVGRFRPSEPHFTLDGNSFYKIISNEEGYRHICYFQIDKKDCTFITKGTWEVIGIEALTSDYLYYISNEYKGMPGGRNLYKIQLSDYTKVTCLSCELNPERCQYYSVSFSKEAKYYQLRCSGPGLPLYTLHSSVNDKGLRVLEDNSALDKMLQNVQMPSKKLDFIILNETKFWYQMILPPHFDKSKKYPLLLDVYAGPCSQKADTVFRLNWATYLASTENIIVASFDGRGSGYQGDKIMHAINRRLGTFEVEDQIEAARQFSKMGFVDNKRIAIWGWSYGGYVTSMVLGSGSGVFKCGIAVAPVSRWEYYDSVYTERYMGLPTPEDNLDHYRNSTVMSRAENFKQVEYLLIHGTADDNVHFQQSAQISKALVDVGVDFQAMWYTDEDHGIASSTAHQHIYTHMSHFIKQCFSLP
notes: DPP-4 (amino acids 39-766); FLAG (N); made in house; host or cells: 293 cells (secreted, purified from serum-free conditioned media)
- Km [1]: 76 ± 10 µM
- kcat [1]: 121 ± 5 s⁻¹
- kcat/Km [1]: 1.6e+06 M⁻¹ s⁻¹
- kcat [2]: < 0.07 s⁻¹
- kcat/Km [2]: 36 ± 3 M⁻¹ s⁻¹
